The target of this experiment is PCSK9Δhelix (human) (UniProt Q8NBP7). The experiment can be described thus: TR-FRET competition, Ab20 as competitor.

Square brackets hold non-standard residues; d marks the D form. * marks the point of attachment. hArg = N=C(N)NCCCC[C@H](N)C(=O)O; Pentanoyl = CCCCC(=O)*

In US20190177366A1 one finds fold increase of inhibition against the arginine peptide (Compound 112) and IC50 data, which are given here for two molecules.

PCSK9Δhelix (human), sequence (Q8NBP7 31-152 limits assumed, stated change not applied, chain 1 of 2): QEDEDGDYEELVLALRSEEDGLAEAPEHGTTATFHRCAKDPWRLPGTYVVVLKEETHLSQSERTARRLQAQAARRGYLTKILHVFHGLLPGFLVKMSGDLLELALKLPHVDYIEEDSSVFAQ
PCSK9Δhelix (human), sequence (Q8NBP7 other isoform, or with tags, fused parts or gaps mutant limits assumed, chain 2 of 2): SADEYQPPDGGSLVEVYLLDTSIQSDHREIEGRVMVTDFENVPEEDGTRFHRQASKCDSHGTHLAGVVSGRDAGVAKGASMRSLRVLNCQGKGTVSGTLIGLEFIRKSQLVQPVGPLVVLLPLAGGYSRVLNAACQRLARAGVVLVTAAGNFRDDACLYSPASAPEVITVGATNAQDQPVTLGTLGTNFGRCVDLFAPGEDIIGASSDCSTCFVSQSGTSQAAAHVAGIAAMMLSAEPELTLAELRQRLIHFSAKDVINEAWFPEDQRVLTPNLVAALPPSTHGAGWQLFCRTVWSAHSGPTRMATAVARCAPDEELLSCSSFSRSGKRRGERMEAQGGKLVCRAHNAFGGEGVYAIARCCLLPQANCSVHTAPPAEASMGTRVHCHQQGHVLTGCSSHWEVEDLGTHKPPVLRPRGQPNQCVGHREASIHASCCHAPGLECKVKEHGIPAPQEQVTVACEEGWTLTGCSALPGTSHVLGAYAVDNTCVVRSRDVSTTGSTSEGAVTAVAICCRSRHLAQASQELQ

B1: Compound 118 (peptide)
peptide: Pentanoyl-WNLV[hArg]IGLTR-NH2
SMILES: CCCCC(=O)N[C@@H](Cc1c[nH]c2ccccc12)C(=O)N[C@@H](CC(N)=O)C(=O)N[C@@H](CC(C)C)C(=O)N[C@H](C(=O)N[C@@H](CCCCNC(=N)N)C(=O)N[C@H](C(=O)NCC(=O)N[C@@H](CC(C)C)C(=O)N[C@H](C(=O)N[C@@H](CCCNC(=N)N)C(N)=O)[C@@H](C)O)[C@@H](C)CC)C(C)C
Molecule B1 registered a fold increase of inhibition against the arginine peptide (Compound 112) of 5 fold.

B2: Compound 111 (peptide)
peptide: Pentanoyl-WNLVRIGLLR-NH2
SMILES: CCCCC(=O)N[C@@H](Cc1c[nH]c2ccccc12)C(=O)N[C@@H](CC(N)=O)C(=O)N[C@@H](CC(C)C)C(=O)N[C@H](C(=O)N[C@@H](CCCNC(=N)N)C(=O)N[C@H](C(=O)NCC(=O)N[C@@H](CC(C)C)C(=O)N[C@@H](CC(C)C)C(=O)N[C@@H](CCCNC(=N)N)C(N)=O)[C@@H](C)CC)C(C)C
Molecule B2 had an IC50 below 10 µM.
